Measured values: the supplement of paper PMC10126150
± gives the standard deviation of the averaged measurements.

System: ATP
Test: switch fluorescence ratio, 500 uM ATP over buffer (Cy3 cluster intensity, sum of 5 cycles each) (fold (ratio)); higher = stronger signal-on switching upon ATP binding; sequences stand for … in TCGTCGGCAGCGTCAGATGTGTATAAGAGACAGTTTTTTTTTTTTTTTTTTTTTTTTT…TC
Conditions: aptamer strand: ATP DNA aptamer (quencher-CACCTGGGGGAGTATTGCGGAGGAAGG + anchor), 100 nM annealed; ATP concentration: 500 uM
Outline: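 The fluorescence ratio divides summed target-cycle Cy3 intensity by summed buffer-cycle Cy3 intensity for each cluster and is averaged per switch-domain sequence. Cy3-labelled switching-strand clusters on a modified Illumina MiSeq flow-cell were annealed to 100 nM quencher-labelled ATP aptamer, then imaged in selection buffer and again after 15 min with 500 uM ATP at 22 °C. Five such cycles were run, with NaOH stripping and re-annealing between them, and clusters outside 100-1000 RFU were excluded.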
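Note: ATP exposure 15 min at 22 °C before imaging.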

| Sequence | switch fluorescence ratio |
| --- | --- |
| ACTCATTCTC | 1.04 ± 0.033 |
| TTGGGCTTGC | 1.04 ± 0.029 |
| ACGAGAGGGG | 0.996 ± 0.048 |
| GGTCCCAAAA | 0.981 ± 0.032 |
| GTTGGACGCT | 0.986 ± 0.029 |
| GGGGTACGAG | 1.02 ± 0.033 |
| TGTGGGGGGC | 1 ± 0.038 |
| TGCGTCAACT | 1.01 ± 0.023 |
| TCCGGGGTGG | 1.022 ± 0.0097 |
| AGGGGTCGGC | 0.986 ± 0.016 |
| GCTCAAAGCT | 1.01 ± 0.043 |
| TGTGGGAGCT | 1.04 ± 0.07 |
| CCAGTGTTAG | 1.03 ± 0.013 |
| TAAGTCCTT | 1.01 ± 0.048 |
| GCGGGCGTTC | 1.0164 ± 0.0005 |
| CGATGCACGG | 1.106 ± 0.0049 |
| GGAGCTGCGG | 0.9914 ± 0.0038 |
| TTTTTCGGTG | 1.04 ± 0.11 |
| CAGGTTGTGT | 0.99 ± 0.031 |
| TCGACGGGGA | 1.1 ± 0.047 |
| CGTGATCAGC | 1.017 ± 0.0098 |
| GGCTGGAAAC | 1.23 ± 0.22 |
| CTATTACGG | 1.04 ± 0.075 |
| GTGTTATCTG | 0.978 ± 0.012 |
| CATAATTAGT | 0.994 ± 0.018 |

| Sequence | switch fluorescence ratio |
| --- | --- |
| AGGAGTAGTC | 0.996 ± 0.021 |
| TCGTATTACG | 1.03 ± 0.094 |
| TATATTTTAT | 0.982 ± 0.035 |
| TGGCTTTGTT | 0.9888 ± 0.0041 |
| CGGGGCGGAT | 1.04 ± 0.016 |
| TCAAAATTTT | 1.01 ± 0.012 |
| GGTGTTATAT | 1.02 ± 0.04 |
| AACTGCGGTC | 1.016 ± 0.0031 |
| TACTTGAATT | 1.02 ± 0.018 |
| GTTTCTTAGA | 0.978 ± 0.036 |
| ATACGTCGGC | 0.984 ± 0.046 |
| TTCAAAGATG | 0.9743 ± 0.0021 |
| ATTTTAACGC | 1.048 ± 0.0063 |
| CGAGGGGGGA | 0.996 ± 0.028 |
| AAGAAGCAGA | 1 ± 0.032 |
| TGGAAGGGGG | 1.01 ± 0.051 |
| AGGGTGTCCA | 0.973 ± 0.028 |
| GATATGCGTT | 0.985 ± 0.031 |
| AGGAGGTAAA | 1.002 ± 0.0034 |
| TCCGAAATCA | 1.6 ± 0.48 |
| TCGGGTCCGC | 1.06 ± 0.046 |
| AGCAGCTGGG | 1.01 ± 0.012 |
| GACGAAAAAG | 0.982 ± 0.017 |
| TGCTTGAGCA | 0.974 ± 0.019 |
| GCGTTGGAGC | 0.9949 ± 0.0072 |

| Sequence | switch fluorescence ratio |
| --- | --- |
| CTTGGTTGCG | 0.999 ± 0.014 |
| GGCTGAAAGT | 0.991 ± 0.016 |
| ATGTATAGTT | 1.02 ± 0.017 |
| TTATTCCCGA | 0.9791 ± 0.0095 |
| CGGCCGTATA | 0.998 ± 0.013 |
| CGCTTTAATA | 1.07 ± 0.019 |
| CGCAGGTTTG | 1.03 ± 0.011 |
| CAGAATTTAG | 0.996 ± 0.024 |
| GCCTTTGTAA | 1.09 ± 0.056 |
| GAAATGATGG | 0.978 ± 0.0013 |
| GCTGGAAGTA | 0.97 ± 0.046 |
| CCATTAAGTC | 1.02 ± 0.045 |
| GTTTGGGATT | 1 ± 0.024 |
| AGATTAAGTA | 0.989 ± 0.024 |
| TTCGTAATCG | 1.07 ± 0.093 |
| CCGTTCTTAC | 2.84 ± 1.1 |
| GGGGTCGGGA | 0.999 ± 0.011 |
| GCTGGGGGAA | 0.98 ± 0.019 |
| AATTGCAGAG | 1.014 ± 0.0032 |
| GATGCTTCTT | 0.985 ± 0.019 |
| TTGGTTGTTA | 1.01 ± 0.041 |
| GGGGGGGGAC | 1.02 ± 0.071 |
| GGGAAGACGA | 1.01 ± 0.014 |
| CGGGGACGAC | 1.63 ± 0.72 |
| GGTTCATTCT | 0.9917 ± 0.0062 |

| Sequence | switch fluorescence ratio |
| --- | --- |
| ATGACCTCTT | 0.985 ± 0.034 |
| GGGGTTAGAA | 0.984 ± 0.0077 |
| CGGGGGTTAC | 1.4 ± 0.56 |
| TAAGTGACGG | 1.04 ± 0.036 |
| AATGGGGGG | 0.986 ± 0.039 |
| AAAGGATGTT | 0.995 ± 0.041 |
| ACGGACCCGG | 1.36 ± 0.42 |
| TAAGGCGTAG | 1.08 ± 0.061 |
| CGACCCTGGA | 1.105 ± 0.01 |
| AGGGGTGCTG | 0.975 ± 0.039 |
| TATCGTATGT | 0.991 ± 0.027 |
| TTGCGGACCA | 0.996 ± 0.043 |
| GGGGGGAGG | 1.1 ± 0.13 |
| TCCGAGGGCT | 1.59 ± 0.084 |
| ATAGTCCAGC | 0.988 ± 0.035 |
| GTTTAGGGTT | 1.02 ± 0.018 |
| AACGGGTAGC | 0.993 ± 0.029 |
| AAGTTTTATG | 1.03 ± 0.059 |
| GCTTCCTGCC | 1.4 ± 0.027 |
| GCTGCAGGGT | 0.9922 ± 0.009 |
| TACCTGGTTA | 0.999 ± 0.049 |
| AAAAGATAAA | 0.977 ± 0.023 |
| CGATTTTGGA | 0.9941 ± 0.0078 |
| TAGGAATTTG | 0.998 ± 0.037 |
| CCAACCAAGG | 1.16 ± 0.056 |

| Sequence | switch fluorescence ratio |
| --- | --- |
| GCCCTTTTAA | 0.982 ± 0.016 |
| CCGGAGATTT | 1.57 ± 0.028 |
| AGTTCTACAT | 1.01 ± 0.039 |
| TAGAGGCTGA | 0.9937 ± 0.0054 |
| AAAGTAATGG | 1.04 ± 0.022 |
| CACGCAGGGT | 1.11 ± 0.12 |
| GGGGAAGCCT | 1.07 ± 0.03 |
| TTGGCTTTGG | 0.967 ± 0.0056 |
| TTAAAGTCTC | 0.946 ± 0.021 |
| TAATGGTTTG | 1.08 ± 0.12 |
| TGGAGTGTTC | 1.06 ± 0.011 |
| GGTTTTTAAT | 0.985 ± 0.031 |
| AAGGTGGGGA | 1.02 ± 0.034 |
| TGGTACGGGT | 1.03 ± 0.011 |
| TAGTTTTTCT | 0.971 ± 0.022 |
| ATCAAAGGTT | 1.03 ± 0.051 |
| GGTTTCGGAA | 1 ± 0.034 |
| CCCTATATAG | 1.01 ± 0.011 |
| GGAAAAGTTT | 0.986 ± 0.04 |
| CATAGTAGAA | 0.978 ± 0.034 |
| CTCTAAAAAG | 1.06 ± 0.05 |
| AGGAGCTGGT | 1.02 ± 0.012 |
| TCAAATACG | 1.057 ± 0.009 |
| TTGGTTTACC | 0.957 ± 0.011 |
| ATTGCGGCAC | 1.05 ± 0.024 |

| Sequence | switch fluorescence ratio |
| --- | --- |
| AACAAACGGT | 1.36 ± 0.057 |
| CCGGGTGGG | 1.01 ± 0.062 |
| TATTTTTAAA | 1.02 ± 0.028 |
| ATTTTTCCGT | 1.02 ± 0.019 |
| TATGGAAGTA | 1.01 ± 0.033 |
| GGAAGAAAAC | 1.008 ± 0.0045 |
| GAGAAAAGGG | 1.04 ± 0.037 |
| CATTCGTTGA | 1.05 ± 0.08 |
| CCATTTACGT | 1.04 ± 0.025 |
| GTCAGTGGCT | 0.998 ± 0.018 |
| GTCGTTTTGG | 0.99 ± 0.029 |
| GAAGAAAATT | 1.01 ± 0.014 |
| GTGGGGGCTG | 0.9878 ± 0.0047 |
| TGGAAAAGGA | 0.9626 ± 0.0095 |
| AACAGTTCTG | 0.986 ± 0.027 |
| AGCAATTTTT | 1.1 ± 0.034 |
| GGTTTAGGTT | 1.01 ± 0.029 |
| TGCCCGGGGA | 1 ± 0.037 |
| TTTAGGATTT | 0.985 ± 0.027 |
| TTGGTGGTGG | 1.01 ± 0.053 |
| CGTTGATGTG | 0.99 ± 0.045 |
| TGCATGTGTC | 0.99 ± 0.035 |
| GACGTTAAAC | 1.56 ± 0.019 |
| GACCATGAAA | 0.96295 ± 0.0008 |
| TATTCATTGT | 1.005 ± 0.0074 |

| Sequence | switch fluorescence ratio |
| --- | --- |
| ACATCAAGGG | 1.06 ± 0.055 |
| AGGATGGACC | 1.01 ± 0.024 |
| GCATGATCAA | 0.997 ± 0.031 |
| TAACTTTTCG | 1.004 ± 0.0028 |
| AAGCTGATCT | 1.016 ± 0.0071 |
| ATGGCCCGGC | 1.03 ± 0.017 |
| AAGTGAGGCA | 0.963 ± 0.06 |
| GAGTGGGGGG | 0.976 ± 0.043 |
| TGGGTTTGCT | 1.001 ± 0.0063 |
| CGACTGGCTG | 1.01 ± 0.049 |
| TGGCTTTTTG | 0.9898 ± 0.0035 |
| AGCCTTATCC | 1.09 ± 0.02 |
| AAATGAGTTT | 1.02 ± 0.013 |
| TAATGTTTAG | 0.99019 ± 0.00022 |
| ATGGGGGTAT | 0.987 ± 0.019 |
| AAGTTTACGC | 0.983 ± 0.025 |
| TGGAATAGGT | 0.999 ± 0.031 |
| AGGGTTGCTG | 1.05 ± 0.074 |
| GAAATTAAGC | 1.06 ± 0.057 |
| TTTCGGGGTG | 1.09 ± 0.17 |
| GGGAAATATT | 1.06 ± 0.14 |
| TGAGGGTTTT | 0.997 ± 0.02 |
| TCATGTTAAA | 0.98647 ± 0.0005 |
| TAAGAAAATT | 0.993 ± 0.023 |
| GATAGTATGT | 0.981 ± 0.023 |

| Sequence | switch fluorescence ratio |
| --- | --- |
| CCGGTGCTCG | 1.04 ± 0.047 |
| CGAAGAGGTG | 1.07 ± 0.021 |
| GAATCGGCAT | 1.02 ± 0.039 |
| CCTTGTGCAG | 1.25 ± 0.018 |
| GTAAACGGTG | 0.979 ± 0.032 |
| TTGGGAAACT | 1.15 ± 0.24 |
| CCTTGAATCG | 0.978 ± 0.023 |
| GAAATGGGGG | 0.991 ± 0.028 |
| CAGGGGTCTG | 0.997 ± 0.038 |
| GATCCGAGGG | 0.974 ± 0.018 |
| CGAGACAGGA | 1.007 ± 0.0017 |
| GGGGGCCATA | 1.14 ± 0.18 |
| CATGATTTGG | 0.982 ± 0.028 |
| AGGACTAAAG | 0.982 ± 0.013 |
| GCTGGAATTG | 1 ± 0.0077 |
| TTCTCGGCTA | 1.56 ± 0.61 |
| ATATATTTTG | 0.972 ± 0.03 |
| CGTGTATTGG | 0.987 ± 0.013 |
| CGAGTATTGG | 0.974 ± 0.018 |
| CGCCCCTGTA | 1.04 ± 0.035 |
| CGAGGGATTT | 1.05 ± 0.013 |
| AGAGGGGTCA | 1.01 ± 0.02 |
| CTAACGGGTA | 1 ± 0.018 |
| CAGCAGGGGT | 1.24 ± 0.15 |
| AGGGCGCCCG | 0.9884 ± 0.0023 |
